Source: the nanobody polyreactivity screen of Harvey et al. (2022)

Experiment: yeast display, Sf9 membrane polyspecificity reagent, FACS + sequencing; frameworks hold sequencing errors
Method in brief: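 Galactose-induced (36–48 hours) yeast carrying a synthetic nanobody display library were exposed to 10% biotinylated, detergent-solubilized Sf9 membrane reagent at 4 °C for 1 hour. FACS followed streptavidin microbead enrichment, using low and high (top ~1%) gates for expression (anti-HA) and reagent binding (streptavidin). Colony PCR, MiSeq 2 × 250 sequencing and CDR-length filtering followed. Labels for polyreactivity reflect the gate of origin.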

Row | Sequence | polyreactivity (PSR sort gate)
1 | QVQLVESGGGLVQAGGSLRLSCVPPDSSSLSMLWDGIDRRLGKKGSWLPVLTSRGVGTYYADSVKGRFTISRDNAKNTVYLQMNSLKPEDTAVYYCYARYEVFYRYDYWGQGTQVTVSS | low polyreactivity
2 | QVQLVESGGGLVQAGGSLRLSCVPSARTFYVYAMGWYRQSPGKQSELVAAIDYSGGDTYYADSVKGRFTISRDNAKNTVYLQMNSLKPVDTAVYYCAAEEYIPIYRYDYEYWGQGTQVTVSS | high polyreactivity
3 | QVQLVESGGGLVQAGGSLRLSCVSSGFTFYFYAMGWYRQPPGKEREFVATITSNGGSTYYADSVKGRFTISRDNAKNTDYLQINSLKPEDTAVYYCNAGRYVRWWWYSPDDYWGQGTQVTVSS | high polyreactivity
4 | QVQLVESGGGLVQAGGSLRLSFAASGFIFGLNAKGWYRQAPAKERELVAAIRWRGDTTYYADSVKGRFTISRDNAKNTVYLQMKSLKPEDTAVYSCNAVVVPSRYDYWGQGTQVTVSS | low polyreactivity
5 | QVQLVESGGGLVQAGGSLRLSFAASGFIFPYYAMGWYRQAPGKERELVAAITSSGGSTYYADSVKGRFTISRDNAKNTVYLQMNSLKPEDTAVYYCNAYGRRTREYDYWGQGTQVTVSS | high polyreactivity
6 | QVQLVESGGGLVQAGGSLRLSFAASGFTFWKNAMGWYRQAPGKERELVATISNGGNTYYADSVKGRFTISRDNAKNTVYLQMNSLKPEDTAVYYCATGYPSDLGREFDYWGQGIQVTVSS | high polyreactivity
7 | QVQLVESGGGLVQAGGSLRLSFAASGITFDHYAMGWYRQAPGKEREFVAAIDDIGGDTYYADSVKGRFTISRDNAKNTVYLQMNSLKPEDTAVYYCAADYGYYSRFYYWGQGTQVTVSS | low polyreactivity
8 | QVQLVESGGGLVQAGGSLRLSFAASGITFTVYTMGWNRQAHGKVRELVPTINSSGSTYYADSVKGRFTISRDNAKNRVYLQMNSLKPEDTAVYYCAAEYWINRDLMDYWGQGTQVTVSS | high polyreactivity
9 | QVQLVESGGGLVQAGGSLRLSFAASGITFYYYTMGWYRQAPGKERELVAGITRGGRTYYADSVKGRFTISRDNSKNSVYLQMNSLKPEDTAVYYFNADPWWRFDYWGQGTQVTVSS | low polyreactivity
10 | QVQLVESGGGLVQAGGSLRLSFAASGITITYYAMGWYRQAPGKERELVAGITNGRSTYYADSVKGRFTISRDNAKNTVYLQMNSLKPEDTAVYYCAAYVWSHSVGHDYWGQGTQVTVSS | low polyreactivity
11 | QVQLVESGGGLVQAGGSLRLSFAASGNILKSYAMGWYRQAHGKERELVAAISSSGGSTYYADSVKGRFTISRDNAKNSVYLQMNSLKPEDTAVYYCNAGAKSGKYYYWGQGTKVTVSS | low polyreactivity
12 | QVQLVESGGGLVQAGGSLRLSFAASGRIFGTNTMGWYRQATGKERELVAGISSSGDSTYYADSVKGRFTISRDKAKNTVYLQINSLKPEDTAVYYCAARKGEFWLPQGGYNYWGQGTQVTVSS | low polyreactivity
13 | QVQLVESGGGLVQAGGSLRLSFAASGRIFSDNAMGWYRQAPGKERELVATINYSGGSTYYADSVKGRFTISRDNAKNTFYLQMNSLKPEDTAVYYCATRIPHRIIYYDYDYWGQGTQVTVSS | low polyreactivity
14 | QVQLVESGGGLVQAGGSLRLSFAASGRTFGEYTMGWYRQATGKERELVAAISSAGRTNYADSVKGRFTISRDNAKNTVYLQMNSLKPEDTAVYYCAADWTDDVPGYDYWGQGTQVTVSS | low polyreactivity
15 | QVQLVESGGGLVQAGGSLRLSFAASGRTFGKNAMGWYRQAPGKEREFVAAITSRGGSTYYADSVKGRFTISRDNAKNTVYLQMNSLKPEDTAVYYCNREYKRPSQRTEHYYWGQGTQVTVSS | low polyreactivity
16 | QVQLVESGGGLVQAGGSLRLSFAASGRTFIGYAMGWSRQAPGKERELVAGISWSGGSTYYADSVKGRFTISRDNAKNTVYLQMNSLKPEDTAVYFCAARGRWSTEYRYWGQGTQVTVSS | low polyreactivity
17 | QVQLVESGGGLVQAGGSLRLSFAASGSIFGPYVMGWYRQAPGKERELVAAISKSGGSTYYADSVKGRFTISRDNAKNTVYLQMNSLKPEDTAVYYCATDYLGGGKRYYYWGQGTQVTVSS | high polyreactivity
18 | QVQLVESGGGLVQAGGSLRLSFAASGSIFSTYAMVWYRQAPGKERELVAAISTRGGRTYYADSLKGRFTLSRDNAKNTVYLQMNSLKPEDTAVYYCAADRYKTIGQWYYYWGQGTQVTVSS | high polyreactivity
19 | QVQLVESGGGLVQAGGSLRLSFAASGSIFSYYPMGWYSQAPGKERELVAAISTSGGRTYYADSVKGRFTISRDNEKNTVYLQLYSLKPEDTPVYYCAAPVRWKNYDYWGQGTQVTVSS | high polyreactivity
20 | QVQLVESGGGLVQAGGSLRLSFAASGSISLYYAMGWYRKAPGKETELVAAISTRGGSTYYADSVKGRFTISRDNAKNTVYLQMNSLKPEDTAVYYCAARTRLTADPRYGISSKMYYWGQGTQVTVSS | high polyreactivity
21 | QVQLVESGGGLVQAGGSLRLSFAASGSTFNIYTMGWYRQAPGKEWELVARITFSGGSTYYADSVKGRFTISRDYAKNTVYLQMNSLKPEDTAVYYCAVRVYRVDHFCYDYWGQGTQVTVSS | high polyreactivity
22 | QVQLVESGGGLVQAGGSLRLSFAASGSTFPSYAMGWYRQAPGKERELVAAITKGGSTTYADSVKGRFTISRDNAKNTVYLQMNSLKPEDTAVYYCAARYYYYYYYIRRDYWGQGTQVTVSS | low polyreactivity

Row | Sequence | polyreactivity (PSR sort gate)
23 | QVQLVESGGGLVQAGGSLRLSGAASGGTFSTNAMGWYRQAPGKERELVAAISLSGGRTYADSEKGRFTISRDNAKNTVYLKMNSVKPEDTAVYYCNADSAGITRARSELDYWGQGTQVTVSS | low polyreactivity
24 | QVQLVESGGGLVQAGGSLRLSGAASGRIFVRNAMGWYRQAPGKERELVADITNGGSTNYADSVKGRFTISRDNAKNTVYLQMNSLKPEDTAVYYCAADTLGVYDGDYWGQGTQVTVSS | low polyreactivity
25 | QVQLVESGGGLVQAGGSLRLSGAASGRIFYYNALGWYRPAPGKEREFVAAITWSGTSTNYADSLKGRFTISRDNAKNTVYLQMNSLKPEDTAVYYCAAQLRNSSRTYYRSGYWGQGTQVTVSS | high polyreactivity
26 | QVQLVESGGGLVQAGGSLRLSGAASGSIFDIYAMGWYRPAPGKERELVADITISGGSTYYADSVKVRFTISRDNAKNTVYLQMNSLIPEDTAVYYCAADVTVVLGYKYDYWGQGTQVTVSS | low polyreactivity
27 | QVQLVESGGGLVQAGGSLRLSGAASGSTFDIYAMGWYRQPPGKESELVAAITVSGGSTYYADSVKGSFTISRDNAKNTVYLQMNSLKPEDTAVYYCNADWSGWQGWYNYWGQGTQVTVSS | low polyreactivity
28 | QVQLVESGGGLVQAGGSLRLSGAASGSTFESYAMGWYRQAPGKERELVAAISWRVGSTYYADSVKGRFTISRDNAKNTVYLQMNSLKPEDTAVYDCASKGRYAHYGGYDYWGQGTQVTVSS | low polyreactivity
29 | QVQLVESGGGLVQAGGSLRLSGAASGSTFYSYAMGWYRQAPGKERELVAAISGSGASTYYADSVKGSFTISRDNAKNTVYLLMNSLKPEETAVYYCAADKPGIFSRFDYWGQGTQVTVSS | low polyreactivity
30 | QVQLVESGGGLVQAGGSLRLSGAASGTLYINLMGWYRQATGKERDLVAAISSNGARTYYADSVKGRFTISRDNAKNTVYLQMNSLKPDDTAVYYSNRVASVRARDYDYWGQGTQVTVSS | high polyreactivity
31 | QVQLVESGGGLVQAGGSLRLSGADSGLTFRRNAMGWYRQAPGNERELVAAIRTGGSTYYADSVKGRFTISRDNAKNTVYLQMNSLKPEDTAVYYCAARSLIGSRLVPMNFWGQGTQVTVSS | high polyreactivity
32 | QVQLVESGGGLVQAGGSLRLSGSASGIIFIYYTIGWYRQAPGTESELVAVITTSGDGTYYADSVKGRFTISRDNAKNTVYLQMNSLKPEDTAVYYCAASYSTWVSTRNDYWGQGTQVTVSS | low polyreactivity
33 | QVQLVESGGGLVQAGGSLRLSRAASGFIFRVYAMGWYRQAPGKERELVAAITGNGVSTYYADSVKGRFTISRDNAKNTVYLQMNSLKPEDTAVYYCATYGRRWYSSRRLDYWGQGTQVTVSS | low polyreactivity
34 | QVQLVESGGGLVQAGGSLRLSRAASGITFRFYAMGWYRQAPGKERQVVARISSSGSRTYYADSVKVRFTISRDNAKNTVYLQMNSLKPEDTAVYYCNAVRRRYQSLLQGDYWGQGTQVTVSS | high polyreactivity
35 | QVQLVESGGGLVQAGGSLRLSRAASGSIFDDYAMGWYRQAPGKERELVAAITSGGSTYYADSVKGRFTMSRDNAKNTVYLQRNSLKPEDTAVYYRATRYHWSSSFAPVGAYGYWGQGTQVTVSP | low polyreactivity
36 | QVQLVESGGGLVQAGGSLRLSRAASGSIFVSNAMGWYRQAPGKERELVAAIRGVDSTYYADSVKGRFTISRDNAKTTVYLQMNSLKPEDTAVYYCATRGPGYPRYYDWGQGTQVTVSS | high polyreactivity
37 | QVQLVESGGGLVQAGGSLRLSRAASGSTFVENAMGWYRQAPGKERELVAAISSSGDSTFYADSVKGRFTISRDNAKNTVYLQMNSLKPEDTAVYYCAADRRINYDGLDMDYWGQGTQVTVSS | low polyreactivity
38 | QVQLVESGGGLVQAGGSLRLSRDASGIIIYDYDIGWYRKAPGKERELVAAITSSGGSTYYADSVKGRFTLSRDNAKNTVYLQMNSLIPEDTAVYYCAAATRGSGRRYDYWGQGTQVTVSS | high polyreactivity
39 | QVQLVESGGGLVQAGGSLRLSSAASGFIFFRYARGWYRQEPGKEREFVAAISWSGGRTYYADSVKGRFTISRDNAKNTVYLQMNSLKPEDTAVYYCAAYPSYWGYGYPGHDYWGQGTQVTVSS | high polyreactivity
40 | QVQLVESGGGLVQAGGSLRLSSAASGFIFGGYSMGWYRQAPGKERELVAAISRSGGSTYYADSVKGRFTISRDNPKNTVYLQMNSLKPEDTAVYYCNAVPRRQGFNYWGHGTQVTVSS | high polyreactivity
41 | QVQLVESGGGLVQAGGSLRLSSAASGFIFQKYVMGWSRQAPGKETEMVAVISRSGDSTRYADSVQGRFTISRDNAKNTVYLQMNSLKPEDTAVYYCAAASAKLTGTGYYYWGQGTQVTVSS | high polyreactivity
42 | QVQLVESGGGLVQAGGSLRLSSAASGFIFYDYAMGWYRQAPGKERALVAAIRSSDGGTYYADSVKGRFTISRDNAKNTVYLQMNSLKPEDTAVYYCAARPSYYDYDYWGQGTQVTVSS | low polyreactivity
43 | QVQLVESGGGLVQAGGSLRLSSAASGFTFEFYAMGWYRQAPGKERELVAAITGSGGSTYYADSVKGRFTISRDNAKNTVYLQMNCLKPEDTAVYYWNAVTRRSAQVGHDYWGQVTQVTVSS | high polyreactivity
